# Results from the Immune Epitope Database (IEDB).
# Assays:
# HLA-A*26:01 = assay: IEDB peptide-MHC binding, purified MHC/competitive/radioactivity; filed as Kd, often an IC50 or EC50 that approximates it; ≥ and ≤ were set here for values at or beyond the usual limits of such assays
# HLA-A*23:01 = assay: as above
# HLA-A*01:01 [1] = assay: as above
# HLA-A*24:02 = assay: as above
# HLA-A*30:02 = assay: as above
# HLA-A*29:02 = assay: as above
# HLA-A*30:01 = assay: as above
# HLA-A*32:01 = assay: as above
# HLA-A*02:03 = assay: as above; settings: source organism: SARS coronavirus Tor2
# HLA-A*02:06 = assay: as above; settings: source organism: SARS coronavirus Tor2
# HLA-A*02:02 = assay: as above; settings: source organism: SARS coronavirus Tor2
# HLA-A*01:01 [2] = assay: IEDB peptide-MHC binding, purified MHC/direct/fluorescence; filed as Kd, often an IC50 or EC50 that approximates it; ≥ and ≤ were set here for values at or beyond the usual limits of such assays; settings: source organism: SARS-CoV1
# HLA-A*11:01 = assay: as above; settings: source organism: SARS-CoV1
# HLA-B*58:01 = assay: as above; settings: source organism: SARS-CoV1
# HLA-B*15:01 = assay: as above; settings: source organism: SARS-CoV1
# HLA-B*51:01 = assay: IEDB peptide-MHC binding, purified MHC/competitive/radioactivity; filed as Kd, often an IC50 or EC50 that approximates it; ≥ and ≤ were set here for values at or beyond the usual limits of such assays
# HLA-B*53:01 = assay: as above; settings: source organism: Dengue virus 4 Dominica/814669/1981
# [3] = source organism: SARS coronavirus Tor2
# [4] = source organism: Mammarenavirus juninense
# [5] = source organism: Mammarenavirus guanaritoense
# [6] = source organism: Mammarenavirus whitewaterense
# [7] = source organism: Mammarenavirus machupoense
# [8] = source organism: Lymphocytic choriomeningitis virus (strain Armstrong)
sequence,measurement,setting,value
GAEHVDTSY,Kd,HLA-A*26:01; [3],2.45 µM
same,Kd,HLA-A*23:01; [3],≥ 77.8 µM
same,Kd,HLA-A*01:01 [1]; [3],0.398 µM
same,Kd,HLA-A*24:02; [3],≥ 77.6 µM
same,Kd,HLA-A*30:02; [3],2.9 µM
same,Kd,HLA-A*29:02; [3],0.722 µM
VAHSSLYGRY,Kd,HLA-A*26:01; [4],11.7 µM
same,Kd,HLA-A*01:01 [1]; [4],5.8 µM
same,Kd,HLA-A*30:02; [4],0.00586 µM
same,Kd,HLA-A*30:01; [4],8.96 µM
same,Kd,HLA-A*32:01; [4],≥ 69.9 µM
same,Kd,HLA-A*29:02; [4],0.349 µM
EALSGFLQY,Kd,HLA-A*26:01; [4],1.49 µM
same,Kd,HLA-A*01:01 [1]; [4],11.6 µM
same,Kd,HLA-A*30:02; [4],3.95 µM
same,Kd,HLA-A*30:01; [4],≥ 43.1 µM
same,Kd,HLA-A*32:01; [4],≥ 77.8 µM
same,Kd,HLA-A*29:02; [4],0.778 µM
QWNLVIGFLF,Kd,HLA-A*26:01; [3],≥ 69.7 µM
same,Kd,HLA-A*23:01; [3],0.00214 µM
same,Kd,HLA-A*01:01 [1]; [3],≥ 30.6 µM
same,Kd,HLA-A*24:02; [3],0.00564 µM
same,Kd,HLA-A*30:02; [3],≥ 26.3 µM
same,Kd,HLA-A*29:02; [3],0.0395 µM
TMADLVYAL,Kd,HLA-A*26:01; [3],≥ 77.9 µM
same,Kd,HLA-A*23:01; [3],6.58 µM
same,Kd,HLA-A*02:03,0.0162 µM
same,Kd,HLA-A*01:01 [1]; [3],≥ 62.5 µM
same,Kd,HLA-A*24:02; [3],10.1 µM
same,Kd,HLA-A*30:02; [3],≥ 93.8 µM
same,Kd,HLA-A*02:06,0.0465 µM
same,Kd,HLA-A*29:02; [3],≥ 23 µM
same,Kd,HLA-A*02:02,0.000183 µM
TQDLFLPFY,Kd,HLA-A*01:01 [2],1.81 µM
same,Kd,HLA-A*11:01,0.424 µM
same,Kd,HLA-B*58:01,≥ 31.5 µM
same,Kd,HLA-B*15:01,1.71 µM
same,Kd,HLA-A*26:01; [3],16.8 µM
same,Kd,HLA-A*23:01; [3],≥ 67.4 µM
same,Kd,HLA-A*24:02; [3],≥ 77.6 µM
same,Kd,HLA-A*30:02; [3],0.00513 µM
same,Kd,HLA-A*29:02; [3],0.426 µM
DPRRCMKPVI,Kd,HLA-B*51:01; source organism: Dengue virus 2 Jamaica/1409/1983,9.65 µM
HLSRTVVYSY,Kd,HLA-A*26:01; [5],10.6 µM
same,Kd,HLA-A*01:01 [1]; [5],1.33 µM
same,Kd,HLA-A*30:02; [5],0.0638 µM
same,Kd,HLA-A*30:01; [5],0.525 µM
same,Kd,HLA-A*32:01; [5],0.671 µM
same,Kd,HLA-A*29:02; [5],1.21 µM
HTNFESFTV,Kd,HLA-A*26:01; [5],≥ 36.6 µM
same,Kd,HLA-A*23:01; [5],≥ 48.2 µM
same,Kd,HLA-A*01:01 [1]; [5],0.44 µM
same,Kd,HLA-A*24:02; [5],≥ 77.5 µM
same,Kd,HLA-A*30:02; [5],0.971 µM
same,Kd,HLA-A*30:01; [5],0.182 µM
same,Kd,HLA-A*32:01; [5],0.682 µM
same,Kd,HLA-A*29:02; [5],11.2 µM
IPHDLMELI,Kd,HLA-B*51:01; source organism: Dengue virus 4 Dominica/814669/1981,0.0168 µM
same,Kd,HLA-B*53:01,0.0065 µM
ATGTDMPGGY,Kd,HLA-A*26:01; [6],≥ 69.7 µM
same,Kd,HLA-A*01:01 [1]; [6],0.033 µM
same,Kd,HLA-A*30:02; [6],0.531 µM
same,Kd,HLA-A*30:01; [6],≥ 63.6 µM
same,Kd,HLA-A*32:01; [6],≥ 69.9 µM
same,Kd,HLA-A*29:02; [6],8.85 µM
YAQMWSLMY,Kd,HLA-A*30:02; source organism: Dengue virus 3 Martinique/1243/1999,0.0088 µM
LYLYALIYFL,Kd,HLA-A*26:01; [3],2.46 µM
same,Kd,HLA-A*23:01; [3],0.022 µM
same,Kd,HLA-A*01:01 [1]; [3],4.27 µM
same,Kd,HLA-A*24:02; [3],0.299 µM
same,Kd,HLA-A*30:02; [3],6.96 µM
same,Kd,HLA-A*29:02; [3],3 µM
GEKSRCYSIY,Kd,HLA-A*26:01; [4],18 µM
same,Kd,HLA-A*23:01; [4],≥ 70 µM
same,Kd,HLA-A*01:01 [1]; [4],13.9 µM
same,Kd,HLA-A*24:02; [4],≥ 70.3 µM
same,Kd,HLA-A*30:02; [4],3.16 µM
same,Kd,HLA-A*30:01; [4],2.19 µM
same,Kd,HLA-A*32:01; [4],≥ 69.9 µM
same,Kd,HLA-A*29:02; [4],≥ 51.8 µM
AWNIWEVEDY,Kd,HLA-A*30:02; source organism: Dengue virus 1 Brazil/97-11/1997,1.88 µM
LSSSEPHCA,Kd,HLA-A*26:01; [7],≥ 77.9 µM
same,Kd,HLA-A*23:01; [7],≥ 60.9 µM
same,Kd,HLA-A*01:01 [1]; [7],4.19 µM
same,Kd,HLA-A*24:02; [7],≥ 77.5 µM
same,Kd,HLA-A*30:02; [7],2.35 µM
same,Kd,HLA-A*29:02; [7],≥ 78.9 µM
RVGLYGLLFY,Kd,HLA-A*26:01; [5],≥ 69.7 µM
same,Kd,HLA-A*01:01 [1]; [5],17.4 µM
same,Kd,HLA-A*30:02; [5],0.0366 µM
same,Kd,HLA-A*30:01; [5],4.05 µM
same,Kd,HLA-A*32:01; [5],2.34 µM
same,Kd,HLA-A*29:02; [5],0.0484 µM
TGFDWITDY,Kd,HLA-A*30:02; source organism: Dengue virus 4 Philippines/H241/1956,1.6 µM
LWPFIRINNL,Kd,HLA-A*23:01; [5],0.117 µM
same,Kd,HLA-A*24:02; [5],0.453 µM
same,Kd,HLA-A*29:02; [5],1.64 µM
FSKSRSTLMY,Kd,HLA-A*26:01; [8],0.878 µM
same,Kd,HLA-A*01:01 [1]; [8],0.0685 µM
same,Kd,HLA-A*30:02; [8],0.993 µM
same,Kd,HLA-A*30:01; [8],0.377 µM
same,Kd,HLA-A*32:01; [8],≥ 69.9 µM
same,Kd,HLA-A*29:02; [8],0.333 µM
